Measured values taken from patent publication US20210395381A1 (OSSIANIX, published 2021).
Numbering of substitutions follows the chain as printed.

B1: Clone 8.53 (VNAR)
VNAR: ARVDQTPQTITKETGESLTINCVLRDSNCALPSTYWYRKKSGSTNEESISKGGRYVETVNSGSKSFSLRINDLTVEDSGTYRCKVIAQLSSILRGCNYAWLDVYGDGTAVTVNA
notes: VNAR on phage; Clone 8 framework
B2: Clone 8.78 (VNAR)
VNAR: B1 VNAR with I92V, L93V, R94I, A99S, W100K, L101H
notes: as for B1
B3: Clone 8.84 (VNAR)
VNAR: B1 VNAR with Q88W, L89Q, A99R, W100K, L101H
notes: as for B1
B4: Clone 8.65 (VNAR)
VNAR: B1 VNAR with L93H, R94D, A99R, W100K, L101H
notes: as for B1
B5: Clone 8.68 (VNAR)
VNAR: B1 VNAR with R94S, G95S, N97H, A99R, W100K, L101H
notes: as for B1
B6: Clone 8.81 (VNAR)
VNAR: B1 VNAR with I92A, L93P, R94D, A99R, W100K, L101H
notes: as for B1
B7: Clone 8.85 (VNAR)
VNAR: B1 VNAR with S90R, S91K, I92K, A99R, W100K, L101H
notes: as for B1
B8: Clone 8.88 (VNAR)
VNAR: B1 VNAR with R94F, N97A, A99R, W100K, L101H
notes: as for B1
B9: Clone 8.80 (VNAR)
VNAR: B1 VNAR with S90P, S91H, I92D, A99R, W100K, L101H
notes: as for B1
B10: Clone 8.70 (VNAR)
VNAR: B1 VNAR with A99Q, W100T, L101S
notes: as for B1
B11: Clone 8.75 (VNAR)
VNAR: B1 VNAR with S90T, S91E, I92M, A99R, W100K, L101H
notes: as for B1
B12: Clone 8.54 (VNAR)
VNAR: B1 VNAR with Q88S, L89A, S90V, A99R, W100K, L101H
notes: as for B1
B13: Clone 8.61 (VNAR)
VNAR: B1 VNAR with R94Q, G95R, A99R, W100K, L101H
notes: as for B1
B14: Clone 8.67 (VNAR)
VNAR: B1 VNAR with N97V, Y98E, A99P, W100K, L101H
notes: as for B1
B15: Clone 8.58 (VNAR)
VNAR: B1 VNAR with I92A, L93G, R94M, A99R, W100K, L101H
notes: as for B1
B16: Clone 8.69 (VNAR)
VNAR: B1 VNAR with I92A, L93P, R94A, A99R, W100K, L101H
notes: as for B1
B17: Clone 8.57 (VNAR)
VNAR: B1 VNAR with S90G, S91N, I92L, A99R, W100K, L101H
notes: as for B1
B18: Clone 8.66 (VNAR)
VNAR: B1 VNAR with A99L, W100A, L101H
notes: as for B1
B19: Clone 8.82 (VNAR)
VNAR: B1 VNAR with N97V, A99P, W100K, L101H
notes: as for B1
B20: Clone 8.91 (VNAR)
VNAR: B1 VNAR with I92R, L93K, R94G, A99R, W100K, L101H
notes: as for B1
B21: Clone 8.86 (VNAR)
VNAR: B1 VNAR with R94V, G95N, N97F, A99R, W100K, L101H
notes: as for B1
B22: Clone 8.90 (VNAR)
VNAR: B1 VNAR with A99L, W100Y, L101I
notes: as for B1
B23: Clone 8.62 (VNAR)
VNAR: B1 VNAR with W100A, L101G
notes: as for B1
B24: Clone 8.76 (VNAR)
VNAR: B1 VNAR with I86Q, A87E, Q88E, A99R, W100K, L101H
notes: as for B1
B25: Clone 8.72 (VNAR)
VNAR: B1 VNAR with N97S, Y98G, A99V, W100K, L101H
notes: as for B1
B26: Clone 8.87 (VNAR)
VNAR: B1 VNAR with L89F, R94C, G95S, N97R, A99R, W100K, L101H
notes: as for B1
B27: Clone 8.60 (VNAR)
VNAR: B1 VNAR with R94L, G95T, N97L, A99R, W100K, L101H
notes: as for B1
B28: Clone 8.73 (VNAR)
VNAR: B1 VNAR with R94K, A99R, W100K, L101H
notes: as for B1
B29: Clone 8.64 (VNAR)
VNAR: B1 VNAR with S90A, S91F, I92W, A99R, W100K, L101H
notes: as for B1
B30: Clone 8.63 (VNAR)
VNAR: B1 VNAR with I86Y, A87R, Q88Y, A99R, W100K, L101H
notes: as for B1
B31: Clone 8.77 (VNAR)
VNAR: B1 VNAR with N97H, Y98L, A99W, W100K, L101H
notes: as for B1
B32: Clone 8.83 (VNAR)
VNAR: B1 VNAR with L93R, R94A, A99R, W100K, L101H
notes: as for B1
B33: Clone 8.74 (VNAR)
VNAR: B1 VNAR with I92L, L93Q, R94D, N97I, A99R, W100K, L101H
notes: as for B1
B34: Clone 8.56 (VNAR)
VNAR: B1 VNAR with N97T, Y98F, A99D, W100K, L101H
notes: as for B1
B35: Clone 8.89 (VNAR)
VNAR: B1 VNAR with R94F, N97D, A99R, W100K, L101H
notes: as for B1
B36: Clone 8.71 (VNAR)
VNAR: B1 VNAR with N97T, Y98P, A99H, W100K, L101H
notes: as for B1
B37: Clone 8.59 (VNAR)
VNAR: B1 VNAR with I92H, L93D, R94H, A99R, W100K, L101H
notes: as for B1
B38: Clone 8.79 (VNAR)
VNAR: B1 VNAR with I86M, A87N, S90D, S91H, I92F, A99R, W100K, L101H
notes: as for B1
B39: Clone 8.55 (VNAR)
VNAR: B1 VNAR with R94F, G95W, N97A, A99R, W100K, L101H
notes: as for B1

target: T1, recombinant mouse TfR-1 (mouse, UniProt Q62351 89-763); experiment: phage ELISA
T1 construct: Recombinant protein coated at 1 ug/ml in the phage ELISA; also called mTfR1; mouse transferrin receptor-1
T1 sequence (Q62351 89-763 limits assumed): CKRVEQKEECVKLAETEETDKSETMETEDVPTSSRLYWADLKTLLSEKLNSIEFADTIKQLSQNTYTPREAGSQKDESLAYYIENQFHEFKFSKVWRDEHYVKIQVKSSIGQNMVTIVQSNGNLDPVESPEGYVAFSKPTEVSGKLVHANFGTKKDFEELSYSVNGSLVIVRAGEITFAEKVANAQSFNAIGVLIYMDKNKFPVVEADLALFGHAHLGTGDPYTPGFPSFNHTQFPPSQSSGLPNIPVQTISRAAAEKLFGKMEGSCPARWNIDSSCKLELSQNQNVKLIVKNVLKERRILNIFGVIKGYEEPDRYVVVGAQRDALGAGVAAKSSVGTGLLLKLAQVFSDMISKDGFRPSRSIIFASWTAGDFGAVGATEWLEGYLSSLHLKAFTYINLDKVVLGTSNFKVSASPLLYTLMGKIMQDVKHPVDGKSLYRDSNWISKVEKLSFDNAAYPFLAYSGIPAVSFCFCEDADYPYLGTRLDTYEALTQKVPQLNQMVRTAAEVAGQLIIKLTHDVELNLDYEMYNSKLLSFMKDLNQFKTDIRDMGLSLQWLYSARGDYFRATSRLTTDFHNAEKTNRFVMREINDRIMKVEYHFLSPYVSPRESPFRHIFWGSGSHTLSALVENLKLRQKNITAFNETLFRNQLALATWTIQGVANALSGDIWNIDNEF

Binder | A450 [A450]
B1 | 0.065
B2 | 0.058
B3 | 0.057
B4 | 0.062
B5 | 0.062
B6 | 0.057
B7 | 0.056
B8 | 0.055
B9 | 0.057
B10 | 0.061
B11 | 0.059
B12 | 0.065
B13 | 0.063
B14 | 0.062
B15 | 0.063
B16 | 0.061
B17 | 0.063
B18 | 0.062
B19 | 0.057
B20 | 0.055

Binder | A450 [A450]
B21 | 0.056
B22 | 0.055
B23 | 0.063
B24 | 0.059
B25 | 0.06
B26 | 0.055
B27 | 0.063
B28 | 0.059
B29 | 0.062
B30 | 0.063
B31 | 0.058
B32 | 0.057
B33 | 0.059
B34 | 0.064
B35 | 0.055
B36 | 0.061
B37 | 0.063
B38 | 0.058
B39 | 0.064

target: T2, recombinant human TfR-1 (human, UniProt P02786 89-760); experiment: phage ELISA
T2 construct: Recombinant protein coated at 1 ug/ml in the phage ELISA; also called hTfR1; human transferrin receptor-1
T2 sequence (P02786 89-760 limits assumed): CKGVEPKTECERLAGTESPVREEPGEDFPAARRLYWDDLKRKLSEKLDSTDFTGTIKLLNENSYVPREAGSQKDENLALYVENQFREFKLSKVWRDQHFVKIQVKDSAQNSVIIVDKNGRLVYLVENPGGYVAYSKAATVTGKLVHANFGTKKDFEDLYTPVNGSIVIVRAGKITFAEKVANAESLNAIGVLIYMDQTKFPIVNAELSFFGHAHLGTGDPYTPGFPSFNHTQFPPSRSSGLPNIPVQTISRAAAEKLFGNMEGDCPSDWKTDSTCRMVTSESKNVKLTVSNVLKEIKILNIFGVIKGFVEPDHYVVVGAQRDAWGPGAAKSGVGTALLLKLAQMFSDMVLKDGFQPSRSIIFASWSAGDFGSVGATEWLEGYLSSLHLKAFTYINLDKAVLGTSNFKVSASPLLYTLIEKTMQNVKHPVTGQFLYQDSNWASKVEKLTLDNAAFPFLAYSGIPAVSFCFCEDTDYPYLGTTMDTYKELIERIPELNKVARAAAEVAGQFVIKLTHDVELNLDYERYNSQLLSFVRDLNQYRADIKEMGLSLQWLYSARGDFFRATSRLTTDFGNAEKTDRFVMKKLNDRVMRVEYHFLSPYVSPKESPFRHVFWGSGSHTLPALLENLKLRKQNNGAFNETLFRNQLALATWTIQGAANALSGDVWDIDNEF

Binder | A450 [A450]
B1 | 0.051
B2 | 0.049
B3 | 0.058
B4 | 0.081
B5 | 0.056
B6 | 0.065
B7 | 0.059
B8 | 0.05
B9 | 0.059
B10 | 0.052
B11 | 0.049
B12 | 0.072
B13 | 0.067
B14 | 0.051
B15 | 0.059
B16 | 0.065
B17 | 0.083
B18 | 0.052
B19 | 0.048
B20 | 0.071

Binder | A450 [A450]
B21 | 0.053
B22 | 0.054
B23 | 0.056
B24 | 0.05
B25 | 0.063
B26 | 0.07
B27 | 0.073
B28 | 0.051
B29 | 0.083
B30 | 0.071
B31 | 0.055
B32 | 0.046
B33 | 0.061
B34 | 0.051
B35 | 0.048
B36 | 0.073
B37 | 0.073
B38 | 0.061
B39 | 0.055
